Experimental data reported in patent US20170267736A1.

Target: human IGF-IR expressed on recombinant NIH-3T3 cells (human) (UniProt P08069)
Test: cell-based or functional assay

Chain of UniProt P08069 (P08069 31-1367): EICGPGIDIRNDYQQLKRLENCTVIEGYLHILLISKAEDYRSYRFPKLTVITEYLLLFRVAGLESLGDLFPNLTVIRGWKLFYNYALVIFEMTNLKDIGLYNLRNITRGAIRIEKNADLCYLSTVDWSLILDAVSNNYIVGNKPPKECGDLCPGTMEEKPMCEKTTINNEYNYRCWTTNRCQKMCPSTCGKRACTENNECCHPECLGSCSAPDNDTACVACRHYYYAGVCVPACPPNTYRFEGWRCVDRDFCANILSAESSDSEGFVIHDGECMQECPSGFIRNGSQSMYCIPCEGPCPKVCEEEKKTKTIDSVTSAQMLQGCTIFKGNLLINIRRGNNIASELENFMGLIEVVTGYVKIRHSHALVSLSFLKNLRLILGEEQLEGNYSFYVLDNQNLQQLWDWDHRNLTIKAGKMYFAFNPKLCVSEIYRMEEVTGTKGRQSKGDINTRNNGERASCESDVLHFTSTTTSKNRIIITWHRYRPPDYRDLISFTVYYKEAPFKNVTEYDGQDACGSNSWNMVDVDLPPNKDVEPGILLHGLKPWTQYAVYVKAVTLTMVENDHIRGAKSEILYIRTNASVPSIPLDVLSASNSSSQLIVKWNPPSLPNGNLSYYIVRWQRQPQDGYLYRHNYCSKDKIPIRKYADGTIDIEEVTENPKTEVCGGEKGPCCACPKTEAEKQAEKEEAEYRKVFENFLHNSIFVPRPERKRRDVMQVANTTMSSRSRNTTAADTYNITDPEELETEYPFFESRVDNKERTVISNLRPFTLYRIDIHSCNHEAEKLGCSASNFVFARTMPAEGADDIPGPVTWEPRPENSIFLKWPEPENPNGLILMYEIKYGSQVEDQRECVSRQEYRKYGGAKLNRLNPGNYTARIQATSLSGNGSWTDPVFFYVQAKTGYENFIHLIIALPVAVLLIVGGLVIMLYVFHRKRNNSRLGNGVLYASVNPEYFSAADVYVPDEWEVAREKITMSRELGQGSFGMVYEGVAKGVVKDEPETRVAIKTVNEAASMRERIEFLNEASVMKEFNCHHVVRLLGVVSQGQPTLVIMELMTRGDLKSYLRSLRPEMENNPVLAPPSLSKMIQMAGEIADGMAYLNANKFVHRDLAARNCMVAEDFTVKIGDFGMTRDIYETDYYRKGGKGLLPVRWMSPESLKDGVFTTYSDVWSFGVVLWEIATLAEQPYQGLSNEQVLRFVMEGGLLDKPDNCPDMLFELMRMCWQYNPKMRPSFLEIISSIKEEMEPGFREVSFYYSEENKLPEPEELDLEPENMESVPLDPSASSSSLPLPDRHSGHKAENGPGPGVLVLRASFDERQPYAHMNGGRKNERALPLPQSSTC

Activation of IGF-1R (phospho-IGF-IR ELISA), EC50 [nM]	Substance
1.2	rhIGF-I (K27R, K65R) (from UniProt P05019 49-118) (ligand)
1.7	wt-rhIGF - trypsin site - Strep-Tag (ligand)
18.4	wt-rhIGF-I - YRHAK MCa PEG20000 (from UniProt P05019 49-118) (ligand)
